Format in all cases: biochemical
In one experiment the target is T1, BTK (Homo sapiens, UniProt Q06187).
T1 construct: purchased Millipore (assay service)
Kind of experiment: Millipore radiometric kinase activity assay, BTK (h). The text has this:
A commercial radiometric assay service (Millipore, Billerica, Mass.) was used to test the specificity and potency of peptides containing a coupled transduction domain and therapeutic domain, hereinafter “complete peptides”). In these assays, if the kinase is not inhibited by an inhibitor peptide, a positively charged substrate is phosphorylated with a radiolabeled phosphate group from an ATP. […] The reaction is initiated by the addition of the MgATP mix. […] IC50 values for inhibitor peptides were determined using Millipore's IC50Profiler Express service. The IC50 value was estimated from a 10-point curve of one-half log dilutions. […] In both assays, compounds were supplied in dimethylsulfoxide (DMSO). Every kinase activity measurement was conducted in duplicate. Therapeutic inhibitor peptides were assayed for activity against human kinases related to MK2, cell viability, or human disease. […] Error is reported as the standard deviation between 2 samples, and “c” is rat AMPK whereas all other kinases used are human kinases.

Another experiment deals with T2, PKG1α (Homo sapiens, UniProt Q13976).
T2 construct: purchased Millipore (radiometric assay service)
T2 sequence (Q13976 1-671): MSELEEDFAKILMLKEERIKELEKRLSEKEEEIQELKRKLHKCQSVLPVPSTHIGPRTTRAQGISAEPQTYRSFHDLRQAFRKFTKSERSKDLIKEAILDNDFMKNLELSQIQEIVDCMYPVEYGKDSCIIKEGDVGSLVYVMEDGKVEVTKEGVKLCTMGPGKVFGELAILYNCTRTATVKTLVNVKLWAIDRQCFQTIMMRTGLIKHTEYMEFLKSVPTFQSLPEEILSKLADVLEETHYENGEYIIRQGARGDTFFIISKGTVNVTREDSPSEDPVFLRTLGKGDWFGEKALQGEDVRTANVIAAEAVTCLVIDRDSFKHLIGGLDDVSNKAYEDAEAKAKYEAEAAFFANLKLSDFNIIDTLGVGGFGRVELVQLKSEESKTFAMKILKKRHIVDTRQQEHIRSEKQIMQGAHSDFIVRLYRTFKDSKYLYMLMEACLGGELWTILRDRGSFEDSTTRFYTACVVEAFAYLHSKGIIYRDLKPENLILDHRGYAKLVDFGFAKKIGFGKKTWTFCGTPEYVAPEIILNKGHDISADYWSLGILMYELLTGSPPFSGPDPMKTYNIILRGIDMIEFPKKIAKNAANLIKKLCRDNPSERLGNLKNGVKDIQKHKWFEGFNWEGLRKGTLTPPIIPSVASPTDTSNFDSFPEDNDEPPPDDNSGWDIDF
Kind of experiment: Millipore radiometric kinase activity assay, PKG1α (h). Conditions: peptide 100 μM. How it is done: (§1) A commercial radiometric assay service (Millipore, Billerica, Mass.) was used to test the specificity and potency of peptides containing a coupled transduction domain and therapeutic domain, hereinafter “complete peptides”). In these assays, if the kinase is not inhibited by an inhibitor peptide, a positively charged substrate is phosphorylated with a radiolabeled phosphate group from an ATP.
(§2) In a final reaction volume of 25 μL, PKG1α (h) (5-10 mU) is incubated with 8 mM MOPS pH 7.0, 0.2 mM EDTA, 10 μM cGMP, 200 μM […] [SEQ ID NO: 62], 10 mM MgAcetate and [γ-^33P-ATP] (specific activity approx. 500 cpm/pmol, concentration as required). The reaction is initiated by the addition of the MgATP mix. After incubation for 40 minutes at room temperature, the reaction is stopped by the addition of 5 μL of a 3% phosphoric acid solution. 10 μL of the reaction is then spotted onto a P30 filtermat and washed three times for 5 minutes in 75 mM phosphoric acid and once in methanol prior to drying and scintillation counting.
IC50 values for inhibitor peptides were determined using Millipore's IC50Profiler Express service. The IC50 value was estimated from a 10-point curve of one-half log dilutions. […]

For a further experiment, the target named is T3, c-Kit (Homo sapiens, UniProt P10721).
T3 construct: purchased Millipore (assay service)
T3 sequence (P10721 26-976): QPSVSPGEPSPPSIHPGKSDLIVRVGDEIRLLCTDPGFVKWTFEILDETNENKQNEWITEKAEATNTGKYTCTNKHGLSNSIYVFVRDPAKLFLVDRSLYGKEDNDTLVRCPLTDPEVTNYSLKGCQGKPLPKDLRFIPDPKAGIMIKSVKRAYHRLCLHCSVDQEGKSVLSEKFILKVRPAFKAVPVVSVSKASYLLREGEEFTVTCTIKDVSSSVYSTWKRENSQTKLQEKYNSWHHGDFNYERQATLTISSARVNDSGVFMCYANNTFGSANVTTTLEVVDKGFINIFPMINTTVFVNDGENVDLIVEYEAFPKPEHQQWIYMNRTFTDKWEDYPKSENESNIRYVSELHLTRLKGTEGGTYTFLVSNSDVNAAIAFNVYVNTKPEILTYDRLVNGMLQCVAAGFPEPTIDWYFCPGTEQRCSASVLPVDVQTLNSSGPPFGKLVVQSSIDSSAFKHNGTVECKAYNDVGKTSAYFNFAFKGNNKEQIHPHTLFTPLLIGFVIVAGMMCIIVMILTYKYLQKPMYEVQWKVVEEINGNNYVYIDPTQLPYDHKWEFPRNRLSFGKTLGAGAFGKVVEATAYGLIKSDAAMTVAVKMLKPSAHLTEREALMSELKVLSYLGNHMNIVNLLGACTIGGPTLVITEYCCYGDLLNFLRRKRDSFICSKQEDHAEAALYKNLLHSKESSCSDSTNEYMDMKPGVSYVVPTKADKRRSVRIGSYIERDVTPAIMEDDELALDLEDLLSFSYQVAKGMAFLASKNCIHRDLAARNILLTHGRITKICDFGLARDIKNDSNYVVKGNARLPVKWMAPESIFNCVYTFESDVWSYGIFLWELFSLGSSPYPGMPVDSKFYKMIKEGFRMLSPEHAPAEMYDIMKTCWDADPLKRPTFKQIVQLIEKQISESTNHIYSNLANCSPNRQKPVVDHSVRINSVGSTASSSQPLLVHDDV
Nature of the experiment: Millipore radiometric kinase activity assay, c-Kit (h). Here is the method:
as §1
In a final reaction volume of 25 μL, c-Kit (h) (5-10 mU) is incubated with 8 mM MOPS pH 7.0, 0.2 mM EDTA, 10 mM MnCl2, 0.1 mg/mL poly(Glu, Tyr) 4:1, 10 mM MgAcetate and [γ-^33P-ATP] (specific activity approx. 500 cpm/pmol, concentration as required). The reaction is initiated by the addition of the MgATP mix. After incubation for 40 minutes at room temperature, the reaction is stopped by the addition of 5 μL of a 3% phosphoric acid solution. 10 μL of the reaction is then spotted onto a Filtermat A and washed three times for 5 minutes in 75 mM phosphoric acid and once in methanol prior to drying and scintillation counting.
(§3) IC50 values for inhibitor peptides were determined using Millipore's IC50Profiler Express service. The IC50 value was estimated from a 10-point curve of one-half log dilutions. For peptides tested for specificity, the concentration of the peptides that inhibited approximately 95% of MK2 activity was chosen to profile against a battery of kinases related to MK2, cell viability, or human disease from MilliporeKinaseProfiler service. In both assays, compounds were supplied in dimethylsulfoxide (DMSO). Every kinase activity measurement was conducted in duplicate.
(§4) Therapeutic inhibitor peptides were assayed for activity against human kinases related to MK2, cell viability, or human disease. The assays were performed using concentrations of therapeutic inhibitor peptides that yielded 2% to 8% of normal MK2 activity. Error is reported as the standard deviation between 2 samples, and “c” is rat AMPK whereas all other kinases used are human kinases.

The target in another experiment is T4, IGF-1R (Homo sapiens, UniProt P08069).
T4 construct: purchased Millipore (assay service)
T4 sequence (P08069 31-1367): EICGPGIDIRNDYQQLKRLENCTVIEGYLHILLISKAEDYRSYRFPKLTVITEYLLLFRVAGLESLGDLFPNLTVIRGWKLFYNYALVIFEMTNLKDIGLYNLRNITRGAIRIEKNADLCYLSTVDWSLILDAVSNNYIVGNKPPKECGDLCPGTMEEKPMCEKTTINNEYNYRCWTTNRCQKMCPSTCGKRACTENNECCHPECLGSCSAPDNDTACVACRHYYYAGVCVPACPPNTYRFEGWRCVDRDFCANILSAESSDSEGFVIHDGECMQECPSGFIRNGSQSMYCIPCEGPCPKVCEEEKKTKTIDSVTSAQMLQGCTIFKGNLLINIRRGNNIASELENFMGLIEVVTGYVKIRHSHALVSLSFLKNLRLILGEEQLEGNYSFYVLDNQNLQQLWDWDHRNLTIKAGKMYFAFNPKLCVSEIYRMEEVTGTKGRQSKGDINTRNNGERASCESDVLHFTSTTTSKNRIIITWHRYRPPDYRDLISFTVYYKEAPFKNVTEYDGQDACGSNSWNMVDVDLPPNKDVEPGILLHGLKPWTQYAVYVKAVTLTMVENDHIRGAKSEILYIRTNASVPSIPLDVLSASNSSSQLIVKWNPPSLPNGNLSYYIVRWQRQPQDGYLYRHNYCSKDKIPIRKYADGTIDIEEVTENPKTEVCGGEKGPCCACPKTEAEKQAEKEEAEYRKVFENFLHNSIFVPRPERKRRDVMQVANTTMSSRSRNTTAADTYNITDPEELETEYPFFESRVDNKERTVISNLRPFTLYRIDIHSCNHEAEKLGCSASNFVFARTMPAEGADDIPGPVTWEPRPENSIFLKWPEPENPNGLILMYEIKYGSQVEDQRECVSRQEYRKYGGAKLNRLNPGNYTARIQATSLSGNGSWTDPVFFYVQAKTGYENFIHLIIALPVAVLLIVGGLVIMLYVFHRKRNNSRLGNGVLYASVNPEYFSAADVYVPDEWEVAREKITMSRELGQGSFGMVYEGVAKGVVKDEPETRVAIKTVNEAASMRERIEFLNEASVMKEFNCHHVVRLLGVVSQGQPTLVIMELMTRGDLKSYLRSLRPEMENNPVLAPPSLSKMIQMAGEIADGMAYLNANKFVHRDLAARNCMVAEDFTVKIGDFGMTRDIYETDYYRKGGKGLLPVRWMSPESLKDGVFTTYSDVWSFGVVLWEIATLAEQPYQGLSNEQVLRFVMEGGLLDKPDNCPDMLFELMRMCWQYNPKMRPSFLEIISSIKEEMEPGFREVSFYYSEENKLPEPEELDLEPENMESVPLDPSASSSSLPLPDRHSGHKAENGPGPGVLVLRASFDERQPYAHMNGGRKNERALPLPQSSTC
Kind of experiment: Millipore radiometric kinase activity assay, IGF-1R (h). Here is the method: as §1
as §2, with “IGF-1 R” for “PKG1α”, “50” for “8”, “Tris” for “MOPS”, “7.5, 0.1” for “7.0, 0.2”, “EGTA, 0.1 mM Na3VO4, 0.1% β-mercaptoethanol, 250” for “EDTA, 10 μM cGMP, 200”, “56], 10 mM MnCl2,” for “62],”
as §3, §4

In a further experiment the target is T5, Rsk2 (Homo sapiens, UniProt P51812).
T5 construct: purchased Millipore (radiometric assay service)
T5 sequence (P51812 whole entry): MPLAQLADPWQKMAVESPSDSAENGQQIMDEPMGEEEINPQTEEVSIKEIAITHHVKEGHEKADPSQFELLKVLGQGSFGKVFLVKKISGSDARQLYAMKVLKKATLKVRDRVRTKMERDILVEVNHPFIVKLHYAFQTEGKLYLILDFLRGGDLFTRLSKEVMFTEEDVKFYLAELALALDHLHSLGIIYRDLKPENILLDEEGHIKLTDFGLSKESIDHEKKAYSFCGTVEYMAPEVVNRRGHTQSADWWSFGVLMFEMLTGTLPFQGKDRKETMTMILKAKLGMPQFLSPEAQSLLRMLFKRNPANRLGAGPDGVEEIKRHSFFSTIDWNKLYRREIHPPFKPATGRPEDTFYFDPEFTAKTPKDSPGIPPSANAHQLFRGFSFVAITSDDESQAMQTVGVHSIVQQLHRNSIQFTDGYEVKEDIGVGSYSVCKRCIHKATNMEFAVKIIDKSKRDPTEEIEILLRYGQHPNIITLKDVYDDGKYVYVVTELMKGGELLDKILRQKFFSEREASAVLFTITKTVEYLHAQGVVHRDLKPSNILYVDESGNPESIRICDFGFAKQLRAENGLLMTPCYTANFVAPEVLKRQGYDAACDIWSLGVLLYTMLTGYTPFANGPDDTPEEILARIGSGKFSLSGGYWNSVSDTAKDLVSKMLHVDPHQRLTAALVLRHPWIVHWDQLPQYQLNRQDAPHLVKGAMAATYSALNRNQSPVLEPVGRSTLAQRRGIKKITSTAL
Nature of the experiment: Millipore radiometric kinase activity assay, Rsk2 (h). How it is done: as §1
as §2, with “μL, Rsk2” for “μL, PKG1α”, “EDTA, 30” for “EDTA, 10 μM cGMP, 200”, “NO: 64],” for “NO: 62],”, “μL it” for “μL”, “10 μL,” for “10 μL”
as §3, §4

T1 sequence (Q06187 whole entry): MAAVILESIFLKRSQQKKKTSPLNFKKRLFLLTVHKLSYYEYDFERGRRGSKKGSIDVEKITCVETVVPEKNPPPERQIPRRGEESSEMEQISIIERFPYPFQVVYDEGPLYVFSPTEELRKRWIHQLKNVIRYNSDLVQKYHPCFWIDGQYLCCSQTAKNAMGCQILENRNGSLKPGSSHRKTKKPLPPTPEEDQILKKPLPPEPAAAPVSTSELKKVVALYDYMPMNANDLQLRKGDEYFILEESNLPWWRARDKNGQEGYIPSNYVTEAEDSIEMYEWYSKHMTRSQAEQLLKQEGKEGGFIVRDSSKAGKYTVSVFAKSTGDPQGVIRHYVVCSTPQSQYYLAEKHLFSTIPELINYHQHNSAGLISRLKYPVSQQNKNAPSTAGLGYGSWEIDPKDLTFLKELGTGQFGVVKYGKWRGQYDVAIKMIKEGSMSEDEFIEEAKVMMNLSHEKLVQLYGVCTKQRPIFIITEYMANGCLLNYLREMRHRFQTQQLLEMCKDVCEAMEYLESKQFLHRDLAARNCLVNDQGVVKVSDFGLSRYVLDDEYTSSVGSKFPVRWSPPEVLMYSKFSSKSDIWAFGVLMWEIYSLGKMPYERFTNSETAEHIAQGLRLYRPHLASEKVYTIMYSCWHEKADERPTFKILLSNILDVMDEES

With KAFAKLAARLYRKALARQLGVAA, in the experiment with BTK (peptide 100 μM), the “BTK Kinase Activity (%) (+SD %)” value is on record as 16 (3) %. Further, in the experiment with PKG1α, the “PKG1α Kinase Activity (%) (+SD %)” value is on record as 25 (2) %. In addition, the “cKit Kinase Activity (%) (+SD %)” value with c-Kit (peptide 100 μM) was 31 (6) %. In addition, in the experiment with IGF-1R (peptide 100 μM), the “IGF-1R Kinase Activity (%) (+SD %)” value is recorded as 76 (12) %. In the experiment with Rsk2 (peptide 100 μM), the “Rsk2 Kinase Activity (%) (+SD %)” value is recorded as 6 (1) %.

As for WLRRIKAWLRRIKALNRQLGVAA, the “BTK Kinase Activity (%) (+SD %)” value in the experiment with BTK (peptide 30 μM) was 5 (0) %; with BTK (peptide 100 μM) it was 19 (1) %. The “PKG1α Kinase Activity (%) (+SD %)” value with PKG1α is given as 12 (2) %. Also, the “cKit Kinase Activity (%) (+SD %)” value with c-Kit (peptide 30 μM) is on record as 23 (2) %; with c-Kit (peptide 100 μM), 42 (3) %. Also, the “IGF-1R Kinase Activity (%) (+SD %)” value with IGF-1R (peptide 30 μM) is given as 227 (12) %; with IGF-1R (peptide 100 μM), 69 (4) %. Moreover, the results for the “Rsk2 Kinase Activity (%) (+SD %)” value in the experiment with Rsk2 (peptide 30 μM) and in the experiment with Rsk2 (peptide 100 μM) were 14 (5) % and −1 (1) %, respectively.

For the origin of these results see patent US9327008B2, “Cell-permeant peptide-based inhibitor of kinases” (Purdue Research Foundation, priority 2008, dated 2016).
